Biological target: the molecule itself
Experiment: SDS-PAGE (SDS-resistant dimer band) with LC-MS/MS of the excised bands; lyophilised pure binase on 15% SDS-PAGE with 0.1% SDS; 12 and 25 kDa bands, both detected by anti-binase immunoblot and in-gel RNase activity; 25 kDa band not fully lost with 2% SDS or 4-8 M urea; bands trypsin-digested and identified by LC-MS/MS

B1: binase (guanyl-preferring RNase secreted by Bacillus pumilus), wild-type enzyme designated as "native" binase (enzyme, Bacillus pumilus (former B. intermedius), UniProt P00649 54-162, looked up)
chain: AVINTFDGVADYLIRYKRLPDNYITKSQASALGWVASKGNLAEVAPGKSIGGDVFSNREGRLPSASGRTWREADINYVSGFRNADRLVYSSDWLIYKTTDHYATFTRIR
notes: binase, secreted RNase of Bacillus pumilus (former B. intermedius); single chain of 109 amino acids, molecular weight 12.3 kDa; secreted enzyme isolated from the medium; binase has no sulfhydryl groups; also called B. intermedius RNase; wild-type binase; source: isolated from the medium of B. pumilus 7P, purified (MonoS), lyophilised; also unpurified B. pumilus culture fluid
**Q.** Which “stoichiometry N” value does the source give for B1 here?
**A.** Its value is 2.

— article PMC4281067, “New Insight into Secreted Ribonuclease Structure: Binase Is a Natural Dimer” (PLoS ONE, 2014)
